{"source": "paper doi:10.1101/2022.07.22.501112", "about": "(2022)", "molecular_target": "T1, E. coli expressed BAHD1(aa:588-780) (UniProt Q8TBE0 588-780)", "T1 chain": "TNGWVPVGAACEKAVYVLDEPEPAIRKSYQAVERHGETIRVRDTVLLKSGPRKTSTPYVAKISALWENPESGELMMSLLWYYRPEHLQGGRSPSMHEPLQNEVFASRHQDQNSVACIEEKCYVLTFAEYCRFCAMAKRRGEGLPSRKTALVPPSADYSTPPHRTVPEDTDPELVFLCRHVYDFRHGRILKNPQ", "assay": "FP", "note": "Numbered stars: 1 amine (or outer) side, 2 acyl side, 3 side chain; on linkers, the order of the positions; unused ones are H or OH. Square brackets hold non-standard residues; d marks the D form. Ends that are not written are not given here. Lys(Me3) = C[N+](C)(C)CCCC[C@H](N)C(=O)O; Ethylenediamine = C(CN[*:2])N[*:1]; 5‑FAM = fluorescent label"}
{"binder": "PRKQLATKAAR[Lys(Me3)]SAPATGG-{Ethylenediamine-4‑Abu-5‑FAM}", "note": "[H3 16-35 K27me3 peptide]", "values": [{"measurement": "Kd", "value": 700, "unit": "nM"}]}
